Patent US7109317

Target: endogenous calcineurin (human) (UniProt P63098)
Assay: cell-based or functional assay

Chain of endogenous calcineurin (human) (P63098 2-170): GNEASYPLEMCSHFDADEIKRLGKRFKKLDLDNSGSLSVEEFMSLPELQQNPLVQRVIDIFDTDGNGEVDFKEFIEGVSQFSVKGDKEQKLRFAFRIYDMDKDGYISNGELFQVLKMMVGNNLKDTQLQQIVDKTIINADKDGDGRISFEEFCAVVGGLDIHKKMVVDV
Chain of FKBP12 (P62942 2-108 limits assumed): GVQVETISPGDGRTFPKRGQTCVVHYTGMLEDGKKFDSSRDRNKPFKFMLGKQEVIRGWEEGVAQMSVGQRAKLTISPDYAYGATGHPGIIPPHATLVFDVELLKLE

FKBP12 (from UniProt P62942 2-108)
suppression of PMA/ionomycin-induced activation of an NFAT-SEAP reporter, C40-phenyl-FK506 against FK506: 30 fold
